In assay [1] the target is C46S-mutant rGlEB1 (G. lamblia). The assay is described as follows: SDS-PAGE of SEC fractions without DTT; fractions eluted from SEC separated by SDS-PAGE without DTT; shows disulfide-linked dimers only.
Assay [2] has as its target truncated recombinant G. lamblia EB1, rGlEB1_(1–184) (CH domain and linker) (G. lamblia). Put plainly: SEC; about 800 µg rGlEB1 in PBS on Superdex 75 10/300 GL; size markers 75, 29, 14 and 6 kDa; monomer to dimer.
The target of assay [3] is C13S-mutant rGlEB1 (G. lamblia). Described as above.
Assay [4] deals with full-length recombinant Giardia lamblia end-binding 1 protein, rGlEB1_(1–238) (G. lamblia). Described as above.
For assay [5] the target is unchanged. Put plainly: SDS-PAGE of SEC fractions without DTT; fractions eluted from SEC separated by SDS-PAGE without DTT; shows disulfide-linked dimers only.

The values that follow come from article PMC4020936.

With C46S-mutant rGlEB1 (natural protein), the stoichiometry N (as a rule, the number of molecules, sites or subunits per partner or assembly) in assay [1] is 2.

On to “truncated recombinant G. lamblia EB1, rGlEB1_(1–184) (CH domain and linker) (domain or fragment)”, for which the stoichiometry N in assay [2] stood at 2.

Substance C13S-mutant rGlEB1 (natural protein) yielded a stoichiometry N in assay [3] of 2.

With “full-length recombinant Giardia lamblia end-binding 1 protein, rGlEB1_(1–238) (natural protein)”, the stoichiometry N in assay [4] and in assay [5] was 2 each time.
